Assay results: US20250075006A1 (SHANDONG SIMCERE BIOPHARMACEUTICAL, published 2025)

Molecular target: T1, human GUCY2C protein, full length, on cells (human, UniProt P25092 24-1073)
T1 construct: whole, on cells; also called endogenous tumor cells HT55
Assay: FACS on HT55 tumor cells (endogenous GUCY2C), MFI

T1 sequence (P25092 24-1073): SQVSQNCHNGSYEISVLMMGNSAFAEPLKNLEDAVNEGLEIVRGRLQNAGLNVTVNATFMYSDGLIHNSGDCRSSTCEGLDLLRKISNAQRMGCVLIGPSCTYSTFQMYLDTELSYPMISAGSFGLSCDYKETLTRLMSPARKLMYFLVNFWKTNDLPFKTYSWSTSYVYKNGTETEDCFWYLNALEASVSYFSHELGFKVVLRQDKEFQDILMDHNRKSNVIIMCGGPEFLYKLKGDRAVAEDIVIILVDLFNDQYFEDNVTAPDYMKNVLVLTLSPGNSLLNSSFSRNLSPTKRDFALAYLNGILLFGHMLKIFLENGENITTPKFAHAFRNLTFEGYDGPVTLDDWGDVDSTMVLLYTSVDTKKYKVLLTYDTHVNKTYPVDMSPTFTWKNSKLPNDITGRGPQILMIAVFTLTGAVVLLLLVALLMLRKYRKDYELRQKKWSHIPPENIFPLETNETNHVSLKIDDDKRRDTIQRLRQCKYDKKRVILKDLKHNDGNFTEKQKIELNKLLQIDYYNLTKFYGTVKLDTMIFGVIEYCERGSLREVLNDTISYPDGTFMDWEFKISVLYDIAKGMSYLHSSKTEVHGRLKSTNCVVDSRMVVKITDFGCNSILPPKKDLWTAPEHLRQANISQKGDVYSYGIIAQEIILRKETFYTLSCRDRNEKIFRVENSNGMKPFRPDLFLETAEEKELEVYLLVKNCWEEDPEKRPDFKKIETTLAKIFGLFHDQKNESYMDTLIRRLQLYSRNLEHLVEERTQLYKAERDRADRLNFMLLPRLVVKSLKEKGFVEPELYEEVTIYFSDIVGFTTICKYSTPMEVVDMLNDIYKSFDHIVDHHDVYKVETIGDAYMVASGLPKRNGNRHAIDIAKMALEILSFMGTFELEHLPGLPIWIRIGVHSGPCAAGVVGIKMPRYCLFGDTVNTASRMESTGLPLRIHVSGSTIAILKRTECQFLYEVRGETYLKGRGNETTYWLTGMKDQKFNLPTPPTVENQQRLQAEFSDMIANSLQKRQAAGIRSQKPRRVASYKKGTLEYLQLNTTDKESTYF

B1: 5F9-hIgG1 (antibody, V domains shown)
VH: QVQLQQWGAGLLKPSETLSLTCAVFGGSFSGYYWSWIRQPPGKGLEWIGEINHRGNTNDNPSLKSRVTISVDTSKNQFALKLSSVTAADTAVYYCARERGYTYGNFDHWGQGTLVTVSS
VL: EIVMTQSPATLSVSPGERATLSCRASQSVSRNLAWYQQKPGQAPRLLIYGASTRATGIPARFSGSGSGTEFTLTIGSLQSEDFAVYYCQQYKTWPRTFGQGTNVEIKR
notes: also called positive control antibody
- EC50 (read off the curve): ~300 pM
